Assays:
[1] = biological target: T1, Peptidylprolyl isomerase A (PPIA), also known as cyclophilin A (CypA), P62937; assay: method not stated; told in the description of FIG. 20
[2] = biological target: T1, Peptidylprolyl isomerase A (PPIA), also …; assay: printed as 'Disrupts the complex AIF/Cyclophilin with a KD'; method not stated

T1 sequence (P62937 whole entry): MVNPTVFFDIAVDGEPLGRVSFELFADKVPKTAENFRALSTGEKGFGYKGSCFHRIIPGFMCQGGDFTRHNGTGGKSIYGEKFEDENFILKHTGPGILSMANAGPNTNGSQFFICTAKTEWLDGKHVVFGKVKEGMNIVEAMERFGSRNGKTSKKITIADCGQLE

GRKKRRQRRRAQSVGVSSGKLLIKLKDGRKVETDHI (modifications not checked) [TAT-AIF (370-394)] showed a Kd [1] of 12 µM and a Kd [2] of 5 µM.

Source: patent US20240109937A1, “BINDING PEPTIDES AND USES THEREOF” (The Johns Hopkins University, priority 2021, published 2024)
